Test results reported in the supplement of paper PMC12764529.
± gives the half width of the 95% confidence interval.

How the values were obtained:
[1] = folding stability dG unfold from trypsin proteolysis; higher = more stable
In short: (§1)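 Designed mini-proteins (under 80 residues, no cysteine) in a PA-tagged cDNA display construct were digested with trypsin and chymotrypsin. Each protease was used at 11 concentrations (threefold dilutions) plus a no-protease condition, followed by sequencing. K50 was inferred by Bayesian fitting of sequencing counts, and unfolding free energy was derived against a sequence-predicted unfolded-state K50 and a shared folded-state K50, per protease or combined. Only designs with AlphaFold2 dimer inter-PAE above 15 were kept.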

[2] = folding stability dG unfold (combined trypsin and chymotrypsin); higher = more stable
In short: as §1

[3] = folding stability dG unfold from chymotrypsin proteolysis; higher = more stable
In short: as §1

| Sequence | folding stability dG unfold [1] [kJ/mol] | folding stability dG unfold [2] [kJ/mol] | folding stability dG unfold [3] [kJ/mol] |
| --- | --- | --- | --- |
| SAGGKEIEELAKKLAEELGVEVVKVEVEKVGPDTVKVTVTLKDGKKIKIEIKKKKDGSYEIKVEIEPSAGGS [r8_284_TrROS_Hall] | 12.9 ± 0.795 | 12.4 ± 1.26 | 11 ± 0.92 |
| SAGGSAGGSAGGSITITWNPESGTVKIKPPNNKKEIEIPAENMTPSQIIDQAKDNGVEVSAGGSAGGSAGGS [r4_49_TrROS] | -0.221 ± 0.502 | 3.91 ± 0.711 | 5.81 ± 0.418 |
| SAGGSAGGSAGGDSVQIEFPDNGMTITINPNNGPISIMEPDGKKKTYPVDSPEEALDAISAGGSAGGSAGGS [r10_849_TrROS] | 0.925 ± 0.113 | 4.75 ± 0.255 | 5.95 ± 0.176 |
| SAGGSAGGSAGGKKVKITVVLEFDGVLLVAEAEIEFDENGKIVEIKVKVELFPAPEEGEESAGGSAGGSAGG [r7_135_TrROS_Hall] | 13.5 ± 1.51 | 12.4 ± 2.01 | 9.99 ± 0.753 |
| SMYTTVTVEVDITLADKTPDGTWTPVGTFPIKVTVTVPESRPEEAREEALARARAEVEAFAASRGLTVVVSA [r9_356_JUSTAS] | 7.36 ± 0.18 | 8.66 ± 0.331 | 9.24 ± 0.18 |
| SAGGSAGGSKPIPYRVKIPSPNGKTHKFDVQIQVRPDGMIDIHVPSGKTIHIPANYPVEIEPWSAGGSAGGS [r20_227_TrROS] | 0.554 ± 0.544 | 0.234 ± 0.879 | -0.868 ± 2.18 |
| SAGGMIEKIKEAAKKLGLKVKIEEVKFDKKTKKVTIKITLENGKKIEITVEMSEEELLNAIKELIKKSAGGS [r16_153_TrROS_Hall] | 10.6 ± 0.46 | 14 ± 0.586 | 15.1 ± 0.381 |
| SAGGSAKEWVWVISIKYRYPNGEPLAPIPIMIPPDDPEIDIDEIADEIARKHGLDEIEVNIHPIPVSAGGSA [r15_333_TrROS] | 6.66 ± 0.218 | 7.94 ± 0.586 | 8.48 ± 0.502 |
| SAGGSAGGMVTSSVSALPDGSYRLTITYPDGTVLTFEFDSEEEVAALLAELAEALPADAAVPLASAGGSAGG [r6_464_JUSTAS] | 6.85 ± 0.247 | 7.14 ± 0.272 | 6.88 ± 0.192 |
| SAGGGPSMTITVTVSSSELTSGSGPGPLTPEDVAKRLEAELPPGNVTVTVVEVDPATGEVTVRIEVESAGGS [r16_284_JUSTAS] | 4.89 ± 0.268 | 4.88 ± 0.322 | 4.61 ± 0.142 |
| SAGKFKITNISPMEERKPEDDKWEEQPYIMIRMRWKDPQKALDEIKEEFGYPVNIQRDPDDGWATIMIPSAG [r5_907_TrROS] | 0.572 ± 0.837 | 1.04 ± 0.46 | 0.966 ± 0.753 |
| SAMYVRITVTFETPDGTRTVTIEIPPSEVEAGKPLSEEELKALAEEIAAKDPNATITEITIERFPESLESAG [r14_373_JUSTAS] | 18 ± 0.46 | 16.7 ± 0.314 | 16.17 ± 0.155 |
| SAGGSAGGSMPVLVSESPVGTLPDGTKVTRVTYRFPNGEILTETVVEPGPGPPTPENVALTLASAGGSAGGS [r12_775_JUSTAS] | 8.54 ± 0.753 | 6.67 ± 1.21 | 4.99 ± 0.962 |
| SAGGSAGGSADLLEELPGLEVVDIERKGNSVVALFRNKETGELVRVTVDADGNITVEVLPLESAGGSAGGSA [r18_26_TrROS_Hall] | 15.5 ± 0.418 | 16.7 ± 0.46 | 16.8 ± 0.301 |
| SAGGSAGGSAGGPWYVRIEYTPPNGNKETFIIPSPEEIDEWAEPFGVPVKIEPIPPGDPISAGGSAGGSAGG [r7_456_TrROS] | 3.35 ± 0.0837 | 3.08 ± 0.381 | 2.53 ± 0.418 |
| SAGGSAGGSKTVVITLPENEELGLEKLEELIEKVGPDAKIIISRWDPETGKVDYLVIETGEGKSAGGSAGGS [r12_913_TrMRF] | 4.27 ± 0.172 | 7.08 ± 0.586 | 8.05 ± 0.879 |
| SAGKKITAEELAKKIAEELGLPEDAKVEVEEVDGTIYIRVEGYVIKITVKDGEITIEIKPAPASPEALKSAG [r5_190_TrROS_Hall] | 6.41 ± 0.184 | 10.2 ± 1.17 | 12.2 ± 0.46 |
| PLVLRLPDGAEAVRVEFFPERNTVVAFFRAPDRLLVVEVRFEPVGGGLLAPVRVRALPVPPTPEQLRLLAES [r1_154_TrMRF] | 5.66 ± 0.41 | 9.07 ± 0.389 | 10.8 ± 0.372 |
| SAGGSAGGSAGGTVTFFEENEFVIDVPDPLTGRPIRIEVPGDPNKPEEIEARAEELRLSSAGGSAGGSAGGS [r10_379_JUSTAS] | 0.783 ± 0.276 | 0.255 ± 0.301 | -0.657 ± 0.402 |
| SAGGSAKRKVEIEIYISREELEEAKKNGKEPTAEAQKQIHRIAKRAREEGMDTVEIKIIPPGQPIPSAGGSA [r15_304_TrROS] | -0.403 ± 1.42 | 1.29 ± 1.17 | 3.28 ± 0.753 |
| SAGGSAGGSAGMRKYTWPFRIPLGGKPFEIRVEMEYDPSSGKHRIEITPEAKDLIKKKIFSAGGSAGGSAGG [r11_91_TrROS] | 2.47 ± 0.289 | 3.66 ± 0.243 | 3.51 ± 0.368 |

| Sequence | folding stability dG unfold [1] [kJ/mol] | folding stability dG unfold [2] [kJ/mol] | folding stability dG unfold [3] [kJ/mol] |
| --- | --- | --- | --- |
| AAPEGAVVTFDDKEITVAPDETLYLVNGKLYTKSEIPAVLKQLSPETEYTELTVAGDTGEVETETKHIYRPS [r1_304_JUSTAS] | 3.63 ± 0.406 | 5.25 ± 0.586 | 6.3 ± 0.502 |
| SPKGIYIFMIQVKWKNPNGNEWTFPIMVPMDEMPEEELRDFIREFFPGFDDVDIEPQVMRIPPSPEAREKSA [r9_841_TrROS] | 9.63 ± 0.669 | 10.7 ± 1.17 | 11.5 ± 0.711 |
| SAGGSAGGMPAEWLDEIEAPPGNYRAELYKTEKEVRIIITLPNGEKLELTFEVKPDEEILVLPGSAGGSAGG [r6_379_TrMRF] | 7.92 ± 0.238 | 8.56 ± 0.406 | 8.87 ± 0.711 |
| SAGGSAGGSFKVPGGYKVVSVEEDPENKTVEITFADGSKLTIDIEDPNVFKPVKVEAPEGFDVSAGGSAGGS [r12_149_TrMRF] | 6.48 ± 0.339 | 7.9 ± 0.226 | 8.53 ± 0.159 |
| SAGGSAGGSAGMTIEELKAKGYKVEVVKLPDSPEEVVVVTYPVPPGGIEKSVIPLSEVKLSAGGSAGGSAGG [r17_311_JUSTAS] | -0.00532 ± 0.105 | 1.57 ± 0.218 | 2.51 ± 0.201 |
| SAPKIEILEVDPNRVLIKIDATPEEIEKIVEEIKKKFPGVKVETEKLEGEKKYLIKVIPVPEVPEELKKSAG [r14_600_TrMRF] | 0.147 ± 0.28 | 4.62 ± 0.586 | 6.04 ± 0.0669 |
| SAGGDGPPKFEPISIPIGDGVIKIWRSPNGSIHLEIMPPGGKPVASKEYPFPDGRKLKLDIQVKPPEDSAGG [r13_584_TrROS] | 1.65 ± 0.544 | 1.95 ± 0.586 | 1.05 ± 0.753 |
| SANPGKPVTIEIPVEEIRQKLNEENPDKPLTPSELKDLAKELIQRQGFPFKDVEIKSVNPGNGWIKIKVSAG [r14_303_TrROS] | 3.64 ± 0.397 | 1.17 ± 2.09 | -2.25 ± 1.8 |
| SPEIKIEVFKNEDGEEIFIKIEVPPGWRIRIIYNGKEIEEIEVDGYRIRFEEVDGKLRIEVEPLPPGEKPSA [r9_221_TrROS_Hall] | 16.2 ± 0.339 | 21.8 ± 1.13 | 22.9 ± 0.628 |
| SAGGSEVETVKVKIKVKIDGKVYEVEAEVEVFTDEDGRKVLRITLPDGRVVEIPLEDADKIEEIEVSAGGSA [r2_297_TrROS_Hall] | 19.7 ± 0.795 | 17.8 ± 0.364 | 16.7 ± 0.46 |
| SAGGSAGGSAGGGKKILGVQPELFYDPENGTLYVKTVAVGEDENGAPGDADISVEPFPLLSAGGSAGGSAGG [r7_892_TrMRF] | 1.01 ± 0.222 | -1.16 ± 1.09 | -2.49 ± 2.26 |
| SENWEPEPITFPDGITIWVMPDYGMIDIIDPDKGTFEMFMIRVDPNGKPEINPLTFKLDPPNGKIKDITPSA [r9_122_TrROS] | 2.75 ± 0.837 | 2.05 ± 1.09 | 2.39 ± 3.81 |
| SAGGSAGGSADGWVFLVGADVEVEPVPASLLNVPRSVPGEENPYVVKLKEVSFLLVPAKELSAGGSAGGSAG [r3_488_TrMRF] | -3.79 ± 1.63 | 0.772 ± 0.669 | 3.07 ± 0.962 |
| SAGGSAGGSAPPLDRVFVEVRVEPGEDAGVVVTHPDGRVLTAPADADVVFEFHPDVPVLVADASAGGSAGGS [r12_553_TrMRF] | -5.3 ± 2.05 | -0.841 ± 0.753 | 0.538 ± 0.502 |
| SAGAPGEVTVTVVRRPRVETEEERRRRRAPPPPVVTLTLKVPPGWVVRRVAFNADGEIVSVELYRRDDLSAG [r5_750_TrROS_Hall] | 5.77 ± 0.121 | 10.6 ± 0.251 | 12.7 ± 0.13 |
| SAGGSDGEMITYPFLLPDGYLITIWISPENGQITEIEIMPIPAPPPEPPVEPKYGRDDGNGNKKYDSAGGSA [r2_78_TrROS] | 4.75 ± 0.197 | 6.36 ± 0.669 | 7.2 ± 0.368 |
| SAGGSAGGSMIKVKITYPNGEEKTIEIEAETEEEAEEAAKKLAEELGKDVKVEVEKVSPEELKSAGGSAGGS [r12_385_TrROS_Hall] | 6.88 ± 0.314 | 6.08 ± 0.305 | 5.12 ± 0.142 |
| SASVEEVIEEAKELAKKLGAYVIVTVYKNNKKIGTYEYPSPSKNSPPTSITIESPDPNYKVKITIYPPGSAG [r14_728_JUSTAS] | 10.6 ± 0.259 | 12.3 ± 0.385 | 13.1 ± 0.134 |
| SAGGSAGGSAGGEPDKVSIHINITEEFIEQIKNGKPIPPWARPAIKYAQKKGKKVEIVWSAGGSAGGSAGGS [r10_890_TrROS] | -4.37 ± 2.55 | -2.08 ± 1.09 | -2.23 ± 2.22 |
| SAGGRIVEAAKEAGLDGVDLKEIRPLPDGGVEIRILPPPGMPEEAAAEAAERIERALREEFPDTRIDTESAG [r5_101_TrMRF] | -3.49 ± 1.38 | -0.874 ± 1.3 | 0.867 ± 0.234 |
| SAGGSAGGSAGGGLSSAPPPVVALSSSVSLVPSPSGGILTVTTTTDAGSGTTTTTTTALSAGGSAGGSAGGS [r10_1137_JUSTAS] | 10.2 ± 0.285 | 7.15 ± 0.176 | 3.17 ± 0.105 |
